Laboratory results published in patent US9777041B2, “Protein nanofibers from self-assembling pentamers” (New York University, priority 2013, dated 2017).

Assays:
Type in all cases: physicochemical
[1] = Circular dichroism wavelength scans (secondary structure); settings: for −θ222 × 10^3 / −θmin × 10^3: 10 μM protein; for random coil / α helices / β sheet: CD, K2D method
Method: (§1) Circular dichroism: Circular dichroism (CD) measurements were conducted on a Jasco J-815 CD spectrometer. Wavelength and temperature scans were conducted with 10 μM (6.3×10^−2 mg/mL) protein concentrations. The wavelength spectrum was measured over a range from 190 to 250 nm with a step size of 1 nm Mean residue ellipticity (MRE) was calculated from raw data according to the procedure described in Gunasekar et al. 2009. Secondary structure analysis of α-helical, β-sheet, and random coil content was calculated with the K2D method using DichroWeb software. Temperature scans of each protein were performed over a range of 20-85° C. with a temperature step of 1° C./min at 222 nm. Scans were also performed at of 2° C./min and 5° C./min to evaluate dependence of thermal melt signatures on scan speed. All measurements were made in duplicates of independently prepared proteins and data represents the average. Thermodynamic properties of wt and Q were determined through analysis of thermal melts. A two-state model was used, where assumptions included monophasic behavior and reversible melting behavior. These assumptions were confirmed experimentally by melting (from 20 to 85° C.) and cooling (from 85 to 20° C.) the proteins. Calculation of thermodynamic parameters including Tm, ΔG°, ΔH°, and ΔS° were performed according to the method described by Greenfield.
To assess the secondary structure of the proteins under acidic as well as neutral and basic conditions in solution, CD measurements were performed. […] The presence of residue P28 towards the center of Q may have influenced the secondary structure, showing decreased helical content when compared to wt at pH 4 and 10 (FIG. 16). The negative control, L, was completely unstructured, devoid of helical content at pH 4 (FIG. 11). […] As the pH increased, the helical content of soluble Q protein increased.
Mean residual ellipticities from circular dichroism measurements at pH 4, 8, and 10 for wt, L, and Q. The data presented in Table 5 represents the average and standard deviation of at least two replicates.

[2] = Circular dichroism thermal melts at 222 nm, van't Hoff analysis; settings: for Tm: 10 μM protein; for ΔG° (free energy of folding): at 25° C.; for ΔS°: ΔS° = ΔH°/Tm
Method: as §1
Thermodynamic properties were assessed via thermal melt of the proteins at 222 nm. Prior to calculating thermodynamic constants, assumptions of monophasic behavior and melt reversibility were confirmed experimentally for wt and Q at all pHs by melting and cooling proteins (FIGS. 18a-18d). The van't Hoff equation was applied to thermal melts of the proteins in the range of 20-85° C.

[3] = Transmission electron microscopy of protein fibers; settings: pH 4, 50 mM PB
Method: Transmission electron microscopy: A JEOL JEM-1400 transmission electron microscope (TEM) was used to study the supramolecular protein structure. […] After 1 minute, the grids were blotted using filter paper and rinsed with 3-4 drops Milli Q water to remove excess salts from the buffer. After blotting with filter paper, the sample was negatively stained by adding 3 μL of 1% filtered uranyl acetate, blotted using filter paper, and dried at room temperature for 10-15 minutes. ImageJ software was used to measure the fibers dimensions.

[4] = ATR-FTIR secondary structure of solid-state protein; settings: for Random, percent composition / α helix, percent composition / β sheet, percent composition: 10 μM protein in 50 mM PB
Method: Attenuated Total Reflectance Fourier Transform Infrared Spectroscopy (ATR-FTIR): ATR-FTIR experiments were performed using Perkin Elmer System 2000 FT-IR with DuraSamplIR II T diamond ATR accessory and equipped with a MCT-A detector. Approximately, 5 μL of peptide solution (10 μM in 50 mM PB, pH 4, 8, and 10) was added on the diamond ATR surface. The spectrum (128 scans) was measured at room temperature over a range of 4000-400 cm^−1 with 0.5 cm^−1 resolution. PeakFit software was used to process the data, which involved a 2nd derivative zero baseline correction of the amide I region between 1700-1600 cm^−1 and deconvolution of peaks with a Gaussian function. All readings represent the average of two trials.
To quantifying the secondary structure of the protein in its solid-state, ATR-FTIR experiments were conducted to evaluate secondary structure of insoluble Q fibers at pH 4, 8, and 10 (Table 8). The frequency measured in the regions of the amide I and amide II absorptions of a protein correlate to the secondary structural motifs within the protein, and were thereby used to assess conformation of the protein in its solid-state (FIGS. 20a-20d). Secondary structure conformation based on ATR-FTIR data for Q in 50 mM PB at pH 4, 8, and 10, and in the presence of curcumin at a 5:1 molar ratio with Q at pH 4 are shown in […]. Percent composition was determined from relative areas of peaks fit to spectra (FIGS. 20a-20d).
Secondary structure conformation based on ATR-FTIR data for 10 μM protein in 50 mM PB before and after templation of AuNPs is provided in Table 10. Percent composition was determined from relative areas of peaks fit to spectra (see spectra FIGS. 37a-37d, FIGS. 38a-38d).

[5] = curcumin at 5:1 molar ratio, pH 4

Substance: Q: Q54 protein, SEQ ID NO:2, variant of COMPcc; coiled-coil that self-assembles into homopentamers and nanofibers (MRGSHHHHHHGSIEGRVKEITFLKNTAPQMLRELQETNAALQDVRELLRQQSKL)
- double minimum, ellipticity at 206 nm ([1]; 206 nm, pH 4 (Table 5)): −6.54×10^3 deg cm^2 dmol^−1
- double minimum, ellipticity at 222 nm ([1]; 222 nm, pH 4 (Table 5)): −3.71×10^3 deg cm^2 dmol^−1
- −θ222 × 10^3 ([1]; pH 4): 3.71 10^3 deg cm^2 dmol^-1
- −θmin × 10^3 ([1]; pH 4): 6.54 10^3 deg cm^2 dmol^-1
- random coil ([1]; pH 4): 55%
- α helices ([1]; pH 4): 9%
- β sheet ([1]; pH 4): 36%
- −θ222 × 10^3 ([1]; pH 8): 6.63 10^3 deg cm^2 dmol^-1
- −θmin × 10^3 ([1]; pH 8): 7.79 10^3 deg cm^2 dmol^-1
- random coil ([1]; pH 8): 57%
- α helices ([1]; pH 8): 22%
- β sheet ([1]; pH 8): 21%
- −θ222 × 10^3 ([1]; pH 10): 6.76 10^3 deg cm^2 dmol^-1
- −θmin × 10^3 ([1]; pH 10): 8.07 10^3 deg cm^2 dmol^-1
- random coil ([1]; pH 10): 57%
- α helices ([1]; pH 10): 25%
- β sheet ([1]; pH 10): 18%
- melting temperatures (Tm) ([2]; across all pH values (4, 8, 10)): 46.4-63.5 °C
- increase in Tm compared to the parent wt ([2]; pH 4): 7.2 °C
- ΔH° (van't Hoff enthalpy) ([2]; pH 4): -32.3 kcal/mol
- Tm ([2]; pH 4): 55.3 °C
- ΔG° (free energy of folding) ([2]; pH 4): -3.3 kcal/mol
- ΔS° ([2]; pH 4): -97.1 cal/(mol·K)
- increase in Tm compared to the parent wt ([2]; pH 8): 14.7 °C
- ΔH° (van't Hoff enthalpy) ([2]; pH 8): -32.6 kcal/mol
- Tm ([2]; pH 8): 63.5 °C
- ΔG° (free energy of folding) ([2]; pH 8): -3.8 kcal/mol
- ΔS° ([2]; pH 8): -96.8 cal/(mol·K)
- ΔH° (van't Hoff enthalpy) ([2]; pH 10): -46.4 kcal/mol
- Tm ([2]; pH 10): 46.4 °C
- ΔG° (free energy of folding) ([2]; pH 10): -3.1 kcal/mol
- ΔS° ([2]; pH 10): -145 cal/(mol·K)
- fiber formation seen by TEM [3]: regularly forms fibers with high levels of structure
- protofibril diameters [3]: 3.5±0.5 nm
- fiber diameters ([3]; listed as Q54): 50-100 nm
- protofibril diameters ([3]; listed as Q54): 3-4 nm
- Random, percent composition ([4]; +AuNP (after templation)): 27%
- α helix, percent composition ([4]; +AuNP (after templation)): 30%
- β sheet, percent composition ([4]; +AuNP (after templation)): 43%
- Random, percent composition ([4]; before templation of AuNPs): 0%
- α helix, percent composition ([4]; before templation of AuNPs): 65%
- β sheet, percent composition ([4]; before templation of AuNPs): 35%
- α helix % composition [4, 5]: 79%
- β sheet % composition [4, 5]: 10%
- Random coil % composition ([4]; curcumin at 5:1 molar ratio, pH 4, 1640-1648 cm^−1): 12%
- β sheet % composition ([4]; pH 4, 50 mM PB, 1625-1640, 1675-1695 cm^−1): 38%
- α helix % composition ([4]; pH 4, 50 mM PB, 1648-1660 cm^−1): 62%
- α helix % composition ([4]; pH 8, 50 mM PB): 63%
- β sheet % composition ([4]; pH 8, 50 mM PB): 37%
- α helix % composition ([4]; pH 10, 50 mM PB): 68%
- β sheet % composition ([4]; pH 10, 50 mM PB): 32%
